Laboratory results reported in patent publication EP4039268A1 (IMBA-Institut für Molekulare Biotechnologie GmbH, dated 2022).

Columns and labels:
[1] = target: T1, monomeric SARS-CoV-2 receptor binding domain (RBD-H6) (SARS-CoV-2, UniProt P0DTC2 319-541); assay: ELISA screen
T1 construct: Made in HEK293-6E cells; also called RBD Spike; monomeric RBD

[2] = target: T2, human recombinant soluble ACE2 (human, UniProt Q9BYF1 18-740); assay: ELISA screen
T2 construct: also called hrsACE2

[3] = target: T3, full-length trimeric SARS-CoV-2 Spike protein (Spike-H6) (SARS-CoV-2, N-glycosylated (22 N-glycosylation sites)); assay: ELISA screen
T3 construct: also called trimeric Spike; full-length Spike-H6

[4] = target: T2, human recombinant soluble ACE2; assay: ELISA

T2 sequence (Q9BYF1 18-740 limits assumed): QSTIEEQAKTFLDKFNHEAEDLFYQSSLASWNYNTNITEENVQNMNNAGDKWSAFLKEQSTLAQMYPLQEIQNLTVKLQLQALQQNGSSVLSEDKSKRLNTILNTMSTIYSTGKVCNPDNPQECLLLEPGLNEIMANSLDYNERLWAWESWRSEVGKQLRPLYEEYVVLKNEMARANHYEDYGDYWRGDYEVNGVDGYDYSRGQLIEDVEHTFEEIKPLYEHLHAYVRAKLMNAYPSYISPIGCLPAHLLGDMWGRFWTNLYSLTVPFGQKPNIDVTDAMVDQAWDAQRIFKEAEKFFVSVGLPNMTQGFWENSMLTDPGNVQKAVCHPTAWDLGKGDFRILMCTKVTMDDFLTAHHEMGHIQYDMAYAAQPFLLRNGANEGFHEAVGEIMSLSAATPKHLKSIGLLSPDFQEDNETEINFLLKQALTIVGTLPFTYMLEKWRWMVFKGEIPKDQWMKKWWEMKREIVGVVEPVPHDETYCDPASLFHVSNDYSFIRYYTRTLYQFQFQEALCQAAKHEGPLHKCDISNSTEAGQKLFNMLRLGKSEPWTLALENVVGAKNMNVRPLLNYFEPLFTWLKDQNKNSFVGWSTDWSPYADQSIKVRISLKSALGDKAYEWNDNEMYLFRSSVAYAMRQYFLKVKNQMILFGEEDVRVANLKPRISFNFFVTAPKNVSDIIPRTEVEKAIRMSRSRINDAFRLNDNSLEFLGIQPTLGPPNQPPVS

Binder	Mean normalized OD [1]	Mean normalized OD [2]	Mean normalized OD [3]	binding result [4]
Selp CRD-mouse IgG2a-Fc fusion protein (Fc fusion) WTYNYSTKAYSWNNSRVFCRRHFTDLVAIQNKNEIAHLNDVIPFFNSYYWIGIRKINNKWTWVGTNKTLTEEAENWADNEPNNKKNNQDCVEIYIKSNSAPGKWNDEPCFKRKRALCGGGSGGGSGGGS	0.007 OD	0 OD	0.014 OD	no binding (tested: 10 µg/ml)
Cd72 CRD-mouse IgG2a-Fc fusion protein (Fc fusion) CCPCGWIPYQERCFYISHTLGSLEESQKYCTSLSSKLAAFDEPSKYYYEVSLPSGLEELLDRSKSYWIQMSKKWRQDSDSQSRHCVRIKTYYQKWERTISKCAELHPCICESGGGSGGGSGGGS	0.015 OD	0.044 OD	0.033 OD	no binding (tested: 10 µg/ml)
Clec10a CRD-mouse IgG2a-Fc fusion protein (Fc fusion) CCPLHWTEHEGSCYWFSESEKSWPEADKYCRLENSHLVVVNSLEEQNFLQNRLANVVSWIGLTDQNGPWRWVDGTDFEKGFKNWAPLQPDNWFGHGLGGGEDCAHITTGGPWNDDVCQRTFRWICEMGGGSGGGSGGGS	0.064 OD	0.125 OD	0.069 OD	no binding (tested: 10 µg/ml)
Pla2r1_4 CRD-mouse IgG2a-Fc fusion protein (Fc fusion) GLASCFKVFHSEKVLMKRSWREAEAFCEEFGAHLASFAHIEEENFVNELLHSKFNWTQERQFWIGFNRRNPLNAGSWAWSDGSPVVSSFLDNAYFEEDAKNCAVYKANKTLLPSNCASKHEWICRGGGSGGGSGGGS	0.053 OD	0.088 OD	0.063 OD	no binding (tested: 10 µg/ml)
Ly75_6 CRD-mouse IgG2a-Fc fusion protein (Fc fusion) FQNKCFLKVNSGPVTFSQASGICHSYGGTLPSVLSRGEQDFIISLLPEMEASLWIGLRWTAYERINRWTDNRELTYSNFHPLLVGRRLSIPTNFFDDESHFHCALILNLKKSPLTGTWNFTSCSERHSLSLCQKGGGSGGGSGGGS	0.003 OD	0.005 OD	0.007 OD	no binding (tested: 10 µg/ml)
Pla2r1_5 CRD-mouse IgG2a-Fc fusion protein (Fc fusion) YQNAEYLFHTHPAEWATFEFVCGWLRSDFLTIYSAQEQEFIHSKIKGLTKYGVKWWIGLEEGGARDQIQWSNGSPVIFQNWDKGREERVDSQRKRCVFISSITGLWGTENCSVPLPSICKGGGSGGGSGGGS	0.036 OD	0.065 OD	0.029 OD	no binding (tested: 10 µg/ml)
Mbl2 CRD-mouse IgG2a-Fc fusion protein (Fc fusion) KVGKKYFVSSVKKMSLDRVKALCSEFQGSVATPRNAEENSAIQKVAKDIAYLGITDVRVEGSFEDLTGNRVRYTNWNDGEPNNTGDGEDCVVILGNGKWNDVPCSDSFLAICEGGGSGGGSGGGS	0.001 OD	0 OD	0.14 OD	no binding (tested: 10 µg/ml)
Clec11a CRD-mouse IgG2a-Fc fusion protein (Fc fusion) LGHKCFLLSRDFETQAAAQARCKARGGSLAQPADRQQMDALSRYLRAALAPYNWPVWLGVHDRRSEGLYLFENGQRVSFFAWHRAFSLESGAQPSAATHPLSPDQPNGGVLENCVAQASDDGSWWDHDCERRLYFVCEGGGSGGGSGGGS	0.011 OD	0.17 OD	0.032 OD	no binding (tested: 10 µg/ml)
Ly75_8 CRD-mouse IgG2a-Fc fusion protein (Fc fusion) FQNSCYNFMITNNRHKTVTPEEVQSTCEKLHSKAHSLSIRNEEENTFVVEQLLYFNYIASWVMLGITYENNSLMWFDKTALSYTHWRTGRPTVKNGKFLAGLSTDGFWDIQSFNVIEETLHFYQGGGSGGGSGGGS	0.007 OD	0.054 OD	0.011 OD	no binding (tested: 10 µg/ml)
Siglec15 CRD-mouse IgG2a-Fc fusion protein (Fc fusion) PAQRWSMQVPAEVNAEAGDAAVLPCTFTHPHRHYDGPLTAIWRSGEPYAGPQVFRCTAAPGSELCQTALSLHGRFRLLGNPRRNDLSLRVERLALADSGRYFCRVEFTGDAHDRYESRHGGGSGGGSGGGS	0.001 OD	0.011 OD	0.008 OD	no binding (tested: 10 µg/ml)
Mrc1_2 CRD-mouse IgG2a-Fc fusion protein (Fc fusion) YAGHCYRIHREEKKIQKYALQACRKEGGDLASIHSIEEFDFIFSQLGYEPNDELWIGLNDIKIQMYFEWSDGTPVTFTKWLPGEPSHENNRQEDCVVMKGKDGYWADRACEQPLGYICKGGGSGGGSGGGS	0.106 OD	0 OD	-0.028 OD	no binding (tested: 10 µg/ml)
Mrc2_2 CRD-mouse IgG2a-Fc fusion protein (Fc fusion) FQGHCYRLQAEKRSWQESKRACLRGGGDLLSIHSMAELEFITKQIKQEVEELWIGLNDLKLQMNFEWSDGSLVSFTHWHPFEPNNFRDSLEDCVTIWGPEGRWNDSPCNQSLPSICKGGGSGGGSGGGS	0.038 OD	0.009 OD	0.017 OD	no binding (tested: 10 µg/ml)
Cd22 CRD-mouse IgG2a-Fc fusion protein (Fc fusion) SANDWTVDHPQTLFAWEGACIRIPCKYKTPLPKARLDNILLFQNYEFDKATKKFTGTVLYNATKTEKDPESELYLSKQGRVTFLGNRIDNCTLKIHPIRANDSGNLGLRMTAGTERWMEPIHLNVSEGGGSGGGSGGGS	0.004 OD	0.006 OD	0.027 OD	no binding (tested: 10 µg/ml)
Cd209d CRD-mouse IgG2a-Fc fusion protein (Fc fusion) FFNGSCYFFSKSQRNWHNSTTACQELGAQLVIIETDEEQTFLQQTSKARGPTWMGLSDMHNEATWHWVDGSPLSPSFTRYWNRGEPNNVGDEDCAEFSGDGWNDLSCDKLLFWICKGGGSGGGSGGGS	0.019 OD	0.039 OD	0.01 OD	no binding (tested: 10 µg/ml)
Mrc1_1 CRD-mouse IgG2a-Fc fusion protein (Fc fusion) LTGILYQINSKSALTWHQARASCKQQNADLLSVTEIHEQMYLTGLTSSLSSGLWIGLNSLSVRSGWQWAGGSPFRYLNWLPGSPSSEPGKSCVSLNPGKNAKWENLECVQKLGYICKGGGSGGGSGGGS	0.076 OD	0.161 OD	0.109 OD	no binding (tested: 10 µg/ml)
Mrc2_7 CRD-mouse IgG2a-Fc fusion protein (Fc fusion) YLNHTFRLLQKPLRWKDALLLCESRNASLAHVPDPYTQAFLTQAARGLQTPLWIGLASEEGSRRYSWLSEEPLNYVSWQDEEPQHSGGCAYVDVDGTWRTTSCDTKLQGAVCGGGSGGGSGGGS	0.002 OD	0 OD	0.002 OD	no binding (tested: 10 µg/ml)
Pkd1l3 CRD-mouse IgG2a-Fc fusion protein (Fc fusion) GGNSCYQLNRLFCDFQEADNYCHAQRGRLAHTWNPKLRGFLKSFLNEETVWWVRGNLTLPGSHPGINQTGGDDVLRNQKPGECPSVVTHSNAVFSRWNLCIEKHHFICQGGGSGGGSGGGS	-0.001 OD	0.017 OD	0.046 OD	no binding (tested: 10 µg/ml)
Sele CRD-mouse IgG2a-Fc fusion protein (Fc fusion) WYYNASSELMTYDEASAYCQRDYTHLVAIQNKEEINYLNSNLKHSPSYYWIGIRKVNNVWIWVGTGKPLTEEAQNWAPGEPNNKQRNEDCVEIYIQRTKDSGMWNDERCNKKKLALCYGGGSGGGSGGGS	0 OD	0 OD	0.001 OD	no binding (tested: 10 µg/ml)
Sftpd CRD-mouse IgG2a-Fc fusion protein (Fc fusion) VGDKIFRTADSEKPFEDAQEMCKQAGGQLASPRSATENAAIQQLITAHNKAAFLSMTDVGTEGKFTYPTGEPLVYSNWAPGEPNNNGGAENCVEIFTNGQWNDKACGEQRLVICEFGGGSGGGSGGGS	0.002 OD	0.016 OD	0.031 OD	no binding (tested: 10 µg/ml)
Thbd CRD-mouse IgG2a-Fc fusion protein (Fc fusion) VEHECFALFQGPATFLDASQACQRLQGHLMTVRSSVAADVISLLLSQSSMDLGPWIGLQLPQGCDDPVHLGPLRGFQWVTGDNHTSYSRWARPNDQTAPLCGPLCVTVSTATEAAPGEPAWEEKPCETETQGFLCEFGGGSGGGSGGGS	0 OD	0.001 OD	0.003 OD	no binding (tested: 10 µg/ml)
Pla2r1_7 CRD-mouse IgG2a-Fc fusion protein (Fc fusion) YGNRTYKIIRGNMTWYAAGKSCRMHRAELASIPDAFHQAFLTVLLSRLGHTHWIGLSTTDNGQTFDWSDGTKSPFTYWKDEESAFLGDCAFADTNGRWHSTACESFLQGAICGGGSGGGSGGGS	0 OD	0 OD	0.002 OD	no binding (tested: 10 µg/ml)
Mrc2_3 CRD-mouse IgG2a-Fc fusion protein (Fc fusion) HSPSCYWLGEDQVIYSDARRLCTDHGSQLVTITNRFEQAFVSSLIYNWEGEYFWTALQDLNSTGSFRWLSGDEVIYTHWNRDQPGYRRGGCVALATGSAMGLWEVKNCTSFRARYICGGGSGGGSGGGS	0.003 OD	0.01 OD	0.003 OD	no binding (tested: 10 µg/ml)
